Data as given in patent publication US20180142032A1 (Sanofi, published 2018).
Where a chain is given by its changes, count along the chain named. Blank lines part the entries; values can stand above or below the binder they belong to.

Assays:
[1] = biological target: T1, LAMP1_hL1_mL2_hL34_ΔGYQTI (human; mouse, UniProt P11279 29-412); assay: flow cytometry, transfected 293-F cells
T1 construct: on cells; also called pXL5997
T1 chain: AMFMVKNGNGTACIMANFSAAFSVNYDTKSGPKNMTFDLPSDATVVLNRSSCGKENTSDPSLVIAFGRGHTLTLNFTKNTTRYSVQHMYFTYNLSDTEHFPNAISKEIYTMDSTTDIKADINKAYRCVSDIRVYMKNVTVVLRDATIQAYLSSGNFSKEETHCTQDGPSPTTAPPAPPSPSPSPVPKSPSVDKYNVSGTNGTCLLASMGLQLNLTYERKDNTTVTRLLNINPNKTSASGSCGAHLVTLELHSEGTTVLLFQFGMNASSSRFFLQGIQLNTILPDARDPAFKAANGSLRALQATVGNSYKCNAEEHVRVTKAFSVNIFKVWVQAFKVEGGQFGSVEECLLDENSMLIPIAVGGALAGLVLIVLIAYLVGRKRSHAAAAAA

[2] = biological target: T2, LAMP1_mseq6_ΔGYQTI (human; mouse, UniProt P11279 29-412); assay: flow cytometry, transfected 293-F cells
T2 construct: on cells; also called pXL5990
T2 chain: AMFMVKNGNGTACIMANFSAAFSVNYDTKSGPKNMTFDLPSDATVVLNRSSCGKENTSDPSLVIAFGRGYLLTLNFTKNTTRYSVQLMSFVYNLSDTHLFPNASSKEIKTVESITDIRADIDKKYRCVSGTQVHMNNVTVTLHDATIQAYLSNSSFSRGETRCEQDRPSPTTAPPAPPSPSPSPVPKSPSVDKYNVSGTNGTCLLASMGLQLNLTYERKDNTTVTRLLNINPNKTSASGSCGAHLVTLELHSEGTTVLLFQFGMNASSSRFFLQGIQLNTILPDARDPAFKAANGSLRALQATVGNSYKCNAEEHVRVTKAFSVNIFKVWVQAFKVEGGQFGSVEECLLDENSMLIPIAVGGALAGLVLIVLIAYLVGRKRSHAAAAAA

[3] = biological target: T3, LAMP1_mseq11_ΔGYQTI (human; mouse, UniProt P11279 29-412); assay: flow cytometry, transfected 293-F cells
T3 construct: on cells; also called pXL5995
T3 chain: T2 chain with Y70H, L71T, K78R, T80A, N153S, S154G, S155N, R158K, G159E

[4] = biological target: T4, LAMP1::histag (human, UniProt P11279 29-382); assay: ELISA on secreted LAMP1::histag
T4 construct: extracellular domain without signal peptide, C-terminal 6 His tag, made in HEK293 cells; also called recombinant human LAMP1; human LAMP1 (29-382)
T4 sequence: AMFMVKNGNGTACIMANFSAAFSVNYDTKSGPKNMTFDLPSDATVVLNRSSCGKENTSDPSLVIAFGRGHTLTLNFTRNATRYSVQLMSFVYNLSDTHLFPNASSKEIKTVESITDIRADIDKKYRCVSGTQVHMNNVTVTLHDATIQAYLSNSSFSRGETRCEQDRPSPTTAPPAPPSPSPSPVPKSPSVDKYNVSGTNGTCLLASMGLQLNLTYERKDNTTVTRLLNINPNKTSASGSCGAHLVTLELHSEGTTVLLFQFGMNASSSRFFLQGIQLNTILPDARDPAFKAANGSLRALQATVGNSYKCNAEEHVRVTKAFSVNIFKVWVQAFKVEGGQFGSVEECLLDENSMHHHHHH

[5] = biological target: T5, human LAMP1 at the cell surface (human, UniProt P11279 29-417); assay: flow cytometry, dissociated CR-IGR-034P colon PDX cells; CR-IGR-034P colon tumor cells
T5 construct: native on tumour cells (PDX, Colo205, SW480, LS174T) or from the cloned CDS NM_005561.3 in HEK293 and HCT116; signal peptide 1-28 left out; also called huLAMP1; full length human LAMP1
T5 sequence: T2 chain with Y70H, L71T, K78R, T80A, A385G, A386Y, A387Q, A388T, A389I
Experimental: Advanced human primary colon tumor CR-IGR-034P was obtained from Patient-derived xenograft in mice. Tumor CR-IGR-034P was enzymatically dissociated using collagenase Type IV (Invitrogen; #17104-019) and deoxyribonuclease I (Invitrogen; #18047-019) for 1 h at 4° C. Cell viability was estimated by Viacount application using Guava® easyCyte™ 8HT Flow Cytometry System. […] 100 μL/well of goat anti-mouse IgG conjugated with Alexa647 (Invitrogen; # A2135) or goat anti-human IgG conjugated with Alexa488 (Invitrogen; # A11013) was added for 45 min at 4° C. and washed three times with PBS 1% BSA. The antibody binding was evaluated after centrifugation and resuspension of cells by adding 200 μl/well PBS 1% BSA and read using Guava® easyCyte™ 8HT Flow Cytometry System. EC50 values were estimated using BIOST@T-SPEED software.

B1: huMAb1_1 (antibody, human IgG1, kappa)
heavy: not shown
light: DIQMTQSPSSLSASVGDRVTITCKASQDIDRYMAWYQDKPGKAPRLLIHDTSTLQSGVPSRFSGSGSGRDYTLTISNLEPEDFATYYCLQYDNLWTFGGGTKVEIKRTVAAPSVFIFPPSDEQLKSGTASVVCLLNNFYPREAKVQWKVDNALQSGNSQESVTEQDSKDSTYSLSSTLTLSKADYEKHKVYACEVTHQGLSSPVTKSFNRGEC
notes: humanized, VH1-huIgG1 and VL1-huCk
binding result [1]: no binding
binding result [2]: no binding
binding result [3]: no binding

EC50 [4]: 0.16 nM
EC50 [5]: 5 nM
B2: MAb1 (antibody, mouse IgG2a, kappa)
heavy: QVQLQQSGAELVKPGASVKMSCKASGYIFTNYNIHWVKKSPGQGLEWIGAIYPGNGDAPYSQKFKDKATLTADKSSSTTYMQLSRLTSEDSAVYYCVRANWDVAFAYWGQGTLVSVSAAKTTAPSVYPLAPVCGDTTGSSVTLGCLVKGYFPEPVTLTWNSGSLSSGVHTFPAVLQSDLYTLSSSVTVTSSTWPSQSITCNVAHPASSTKVDKKIEPRGPTIKPCPPCKCPAPNLLGGPSVFIFPPKIKDVLMISLSPIVTCVVVDVSEDDPDVQISWFVNNVEVHTAQTQTHREDYNSTLRVVSALPIQHQDWMSGKEFKCKVNNKDLPAPIERTISKPKGSVRAPQVYVLPPPEEEMTKKQVTLTCMVTDFMPEDIYVEWTNNGKTELNYKNTEPVLDSDGSYFMYSKLRVEKKNWVERNSYSCSVVHEGLHNHHTTKSFSRTPGK
light: DIQMTQSPPSLSASLGGKVTITCKASQDIDRYMAWYQDKPGKGPRLLIHDTSTLQPGIPSRFSGSGSGRDYSFSISNLEPEDIATYYCLQYDNLWTFGGGTKLEIKRADAAPTVSIFPPSSEQLTSGGASVVCFLNNFYPKDINVKWKIDGSERQNGVLNSWTDQDSKDSTYSMSSTLTLTKDEYERHNSYTCEATHKTSTSPIVKSFNRNEC
notes: murine monoclonal IgG, kappa, from hybridoma; also called murine MAb1
